In patent US20140212436A1:
Read-outs that look alike come from different tables or passages of the source.

How the values were obtained:
[1] = molecular target: recombinant human FcγRIIb protein (human) (UniProt P31994); test: Biacore
[2] = molecular target: human V158 FcγRIIIa (human) (UniProt P08637); test: Biacore
[3] = molecular target: human FcγRI (human) (UniProt P12314); test: Biacore
[4] = molecular target: FcγRIIaR (human) (UniProt P12318); test: Biacore
[5] = molecular target: FcγRIIIaF (human) (UniProt P08637); test: Biacore
[6] = molecular target: IgE (from a human IgE ELISA kit, Bethyl Laboratories) (human) (UniProt P01854); test: sandwich ELISA, antibody coated as capture; the concentration is that of IgE
[7] = molecular target: human H131 FcγRIIa (human) (UniProt P12318); test: Biacore
[8] = molecular target: recombinant human FcγRIIb protein (human) (UniProt P31994); test: Biacore; remark: listed apart in the source
[9] = molecular target: human H131 FcγRIIa (human) (UniProt P12318); test: Biacore; remark: listed apart in the source
[10] = molecular target: human V158 FcγRIIIa (human) (UniProt P08637); test: Biacore; remark: listed apart in the source
[11] = molecular target: human FcγRI (human) (UniProt P12314); test: Biacore; remark: listed apart in the source
[12] = molecular target: XENP12704, anti-IgE antibody containing human C3d fused to the C-terminus of Ckappa (human) (UniProt P01834); test: ELISA, CR2-Fc coated; the concentration is that of XENP12704
[13] = molecular target: recombinant human FcγRIIb protein (human) (UniProt P31994); test: Biacore SPR, antibody captured on protein A/G, FcγRIIb injected

human H131 FcγRIIa (human), sequence (P12318 other isoform, or with tags, fused parts or gaps limits assumed): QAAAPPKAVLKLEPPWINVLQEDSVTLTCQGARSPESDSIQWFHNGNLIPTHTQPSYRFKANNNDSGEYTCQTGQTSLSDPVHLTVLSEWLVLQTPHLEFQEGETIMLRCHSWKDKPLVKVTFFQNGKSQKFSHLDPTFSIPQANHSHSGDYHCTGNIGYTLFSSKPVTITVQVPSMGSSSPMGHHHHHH
recombinant human FcγRIIb protein (human), sequence (P31994 46-217 limits assumed): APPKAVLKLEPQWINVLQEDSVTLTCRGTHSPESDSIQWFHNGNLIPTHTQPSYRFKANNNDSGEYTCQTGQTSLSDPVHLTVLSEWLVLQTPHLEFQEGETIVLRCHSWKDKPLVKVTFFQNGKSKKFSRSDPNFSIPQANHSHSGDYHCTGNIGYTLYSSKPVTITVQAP
human V158 FcγRIIIa (human), sequence (P08637 other isoform, or with tags, fused parts or gaps limits assumed): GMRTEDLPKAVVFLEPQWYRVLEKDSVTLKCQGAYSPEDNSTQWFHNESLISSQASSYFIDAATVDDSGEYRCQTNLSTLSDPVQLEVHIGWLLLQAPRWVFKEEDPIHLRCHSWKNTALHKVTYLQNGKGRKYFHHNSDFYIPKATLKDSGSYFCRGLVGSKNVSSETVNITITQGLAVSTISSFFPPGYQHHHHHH
FcγRIIIaF (human), sequence (P08637 17-208 limits assumed): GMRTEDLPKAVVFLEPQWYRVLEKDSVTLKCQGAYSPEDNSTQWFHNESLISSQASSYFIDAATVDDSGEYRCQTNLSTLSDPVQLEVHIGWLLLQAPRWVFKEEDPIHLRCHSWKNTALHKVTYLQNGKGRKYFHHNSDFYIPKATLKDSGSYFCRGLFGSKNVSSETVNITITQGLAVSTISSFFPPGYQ
FcγRIIaR (human), sequence (P12318 34-217 H167R limits assumed): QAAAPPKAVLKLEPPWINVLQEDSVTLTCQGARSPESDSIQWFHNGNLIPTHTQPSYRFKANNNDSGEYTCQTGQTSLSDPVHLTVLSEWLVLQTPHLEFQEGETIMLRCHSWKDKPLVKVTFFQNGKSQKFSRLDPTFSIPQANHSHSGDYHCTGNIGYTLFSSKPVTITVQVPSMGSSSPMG
human FcγRI (human), sequence (P12314 16-288 limits assumed): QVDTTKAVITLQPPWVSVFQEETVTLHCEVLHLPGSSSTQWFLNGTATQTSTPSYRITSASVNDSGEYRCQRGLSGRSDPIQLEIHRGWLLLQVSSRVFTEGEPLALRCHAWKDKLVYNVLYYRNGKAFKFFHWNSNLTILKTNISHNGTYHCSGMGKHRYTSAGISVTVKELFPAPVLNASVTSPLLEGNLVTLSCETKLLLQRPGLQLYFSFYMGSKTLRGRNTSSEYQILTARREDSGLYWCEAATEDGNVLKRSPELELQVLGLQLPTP
XENP12561 (hSCR1-2 Fc fusion), sequence (P20023 21-148 limits assumed): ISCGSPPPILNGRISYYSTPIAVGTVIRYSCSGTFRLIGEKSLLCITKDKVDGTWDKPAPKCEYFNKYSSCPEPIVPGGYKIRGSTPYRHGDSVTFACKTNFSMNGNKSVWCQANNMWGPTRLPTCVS
XENP12562 (hSCR1-4 Fc fusion), sequence (P20023 21-273 limits assumed): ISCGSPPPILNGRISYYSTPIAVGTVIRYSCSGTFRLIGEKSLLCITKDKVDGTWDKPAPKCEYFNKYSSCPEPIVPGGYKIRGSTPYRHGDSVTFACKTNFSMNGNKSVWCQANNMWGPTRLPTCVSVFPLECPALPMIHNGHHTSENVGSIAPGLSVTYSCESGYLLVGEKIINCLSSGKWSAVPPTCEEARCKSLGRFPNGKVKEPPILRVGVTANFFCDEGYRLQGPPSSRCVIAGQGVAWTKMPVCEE
IgE (from a human IgE ELISA kit, Bethyl Laboratories) (human), sequence (P01854 other isoform, or with tags, fused parts or gaps): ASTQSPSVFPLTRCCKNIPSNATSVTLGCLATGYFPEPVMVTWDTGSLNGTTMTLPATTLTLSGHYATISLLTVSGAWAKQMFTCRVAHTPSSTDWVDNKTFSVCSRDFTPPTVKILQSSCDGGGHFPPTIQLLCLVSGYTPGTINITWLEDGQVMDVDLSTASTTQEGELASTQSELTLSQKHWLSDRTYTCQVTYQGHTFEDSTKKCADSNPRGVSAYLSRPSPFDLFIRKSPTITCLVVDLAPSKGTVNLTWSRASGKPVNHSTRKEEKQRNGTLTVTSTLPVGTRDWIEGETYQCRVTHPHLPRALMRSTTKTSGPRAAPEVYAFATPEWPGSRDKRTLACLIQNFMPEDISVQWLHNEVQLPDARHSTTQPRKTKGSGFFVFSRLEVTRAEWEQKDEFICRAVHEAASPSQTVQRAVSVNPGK

Row | Substance | Kd [1] [nM] | Kd [2] [nM] | Kd [3] [nM] | Kd [4] [nM] | Kd [5] [nM] | Fold [1] | Kd [7] [nM] | Fold [2] | Fold [3] | Fold [4] | Kd [8] [nM] | Kd [9] [nM] | Kd [11] [nM] | Fold [7] | further results
1 | L328F (antibody) | 541 | 58400 | 0.452 | 166 | 5110 | – | – | – | – | – | – | – | – | – | –
2 | MaE11_IgG1_G236R/L328R (antibody) | – | – | – | – | – | – | – | – | – | – | – | – | – | – | EC50 (read off the curve) [6]: 0.05 µg/mL
3 | S239D (antibody) | 408 | 23.5 | 0.0934 | 230 | 214 | 3.6 | 590 | 8.14 | 3.53 | 3.73 | – | – | – | – | Fold [5]: 6.32
4 | S267E (antibody) | 71.9 | 503 | 0.117 | 29.1 | – | 20.4 | 859 | 0.381 | 2.81 | 29.5 | 60 | 960 | 0.26 | 0.753 | Fold [8]: 30; Fold [9]: 0.89; Fold [10]: 0.29; Kd [10]: 690 nM; Fold [11]: 1.1
5 | V266M (antibody) | 770 | 350 | 0.264 | 274 | – | 1.91 | 553 | 0.547 | 1.25 | 3.13 | – | – | – | 1.17 | –
6 | V266M/S267E (antibody) | 50.2 | 4270 | 0.166 | 28 | – | 29.2 | 59.2 | 0.0448 | 1.98 | 30.7 | – | – | – | 10.9 | –
7 | XENP12561 (hSCR1-2 Fc fusion) (from UniProt P20023 21-148) | – | – | – | – | – | – | – | – | – | – | – | – | – | – | EC50 (read off the curve) [12]: 0.02 µg/mL
8 | XENP12562 (hSCR1-4 Fc fusion) (from UniProt P20023 21-273) | – | – | – | – | – | – | – | – | – | – | – | – | – | – | EC50 (read off the curve) [12]: 0.003 µg/mL
9 | anti-CD19 antibody HuAM4G7, IgG1 Fc variant G236D/S267E | 26.6 | 579 | 3.71 | – | – | – | 2730 | – | – | – | 25 | 2200 | 3.2 | – | –
10 | anti-CD19 antibody HuAM4G7, IgG1 Fc variant S239D/I332E | 101 | – | 0.0374 | 68.6 | 28.2 | – | 163 | – | – | – | 88 | 220 | 0.14 | – | Kd [10]: 6.8 nM
11 | anti-CD19 antibody HuAM4G7, IgG1 Fc variant S239D/S267E | 13.3 | 51.2 | 0.0142 | 7.16 | 516 | 111 | 510 | 3.74 | 23.2 | 120 | 12 | 700 | 0.17 | 1.27 | Fold [8]: 150; Fold [9]: 1.2; Fold [10]: 3; Kd [10]: 62 nM; Fold [11]: 1.6; Fold [5]: 2.62
12 | anti-CD19 antibody HuAM4G7, IgG1 Fc variant S267E/L328F | 6.06 | 5040 | 0.22 | 3.12 | – | 242 | 923 | 0.038 | 1.5 | 275 | 4.2 | 880 | 0.23 | 0.7 | Fold [8]: 429; Fold [9]: 0.97; Fold [11]: 1.2
13 | anti-CD19 antibody HuAM4G7, WT (native) IgG1 Fc | 1470 | 191 | 0.329 | 859 | – | – | 646 | – | – | 1 | – | 850 | 0.28 | – | Kd [13]: 1800 nM; Fold [8]: 1; Fold [9]: 1; Fold [10]: 1; Kd [10]: 200 nM; Fold [11]: 1
14 | anti-CD19 antibody HuAM4G7, WT (native) IgG1 Fc (antibody; other documents disagree on this pair) | – | – | – | – | 1350 | – | – | – | – | – | – | – | – | – | Fold [5]: 1
